Data reported in paper PMC5187519.

B1: IF3DL (double-labeled IF3; IF3 E166C with Atto-540Q at the CTD and Atto-488 at the NTD) (natural protein)
chain: MKGGKRVQTARPNRINGEIRAQEVRLTGLEGEQLGIVSLREALEKAEEAGVDLVEISPNAEPPVCRIMDYGKFLYEKSKSSKEQKKKQKVIQVKEIKFRPGTDEGDYQVKLRSLIRFLEEGDKAKITLRFRGREMAHQQIGMEVLNRVKDDLQELAVVESFPTKICGRQMIMVLAPKKKQ
modifications: Atto-540Q maleimide on the recombinant cysteine 166 (E166C, CTD); Atto-488 maleimide on the natural cysteine 65 (NTD)
B2: Initiation factor IF1 (natural protein)
chain: MAKEDNIEMQGTVLETLPNTMFRVELENGHVVTAHISGKMRKNYIRILTGDKVTVELTPYDLSKGRIVFRSR

Tests used:
[1] = biological target: 30S subunit (minor ribosomal subunit); assay: stopped-flow fluorescence; pre-steady state; 30S subunits (0.1 µM) mixed with equimolar IF3DL; intramolecular FRET of IF3DL; TAKM10 buffer, 25 °C; fit with two exponential terms; apparent rate constants
[2] = biological target: 30S–IF3DL complex (UniProt P0A707); assay: other fluorescence titration; equilibrium; preformed 30S–IF3DL (0.5 µM) titrated with IF1 (0.1-2 µM); intramolecular FRET of IF3DL; HAKM10 buffer; one-site binding fit
[3] = biological target: 30S–IF3DL complex (UniProt P0A707); assay: stopped-flow fluorescence; pre-steady state; preformed 30S–IF3DL (0.1 µM) mixed with a 10-fold molar excess of IF1 (1 µM); intramolecular FRET of IF3DL; TAKM10 buffer, 25 °C; single exponential fit; apparent rate constant

Binder	kapp1 (initial bimolecular encounter, 0.1 µM each) [1]	Kd [2]	kapp (IF1-dependent FRET change at 1 µM IF1; a step after the initial binding) [3]
B1	16 s⁻¹	–	–
B2	–	100 nM	0.26 s⁻¹
